# Reference: the supplement of paper PMC12764529
# ± gives the half width of the 95% confidence interval.
# Test: folding stability dG unfold from chymotrypsin proteolysis; higher = more stable
# How it was run: (§1)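 Sequencing followed digestion of designed mini-proteins with trypsin and chymotrypsin, each at 11 concentrations in threefold dilutions together with a no-protease condition. The mini-proteins were under 80 residues, had no cysteine, sat in a PA-tagged cDNA display construct, and were kept only if AlphaFold2 dimer inter-PAE was above 15. From the counts, Bayesian fitting gave K50, and unfolding free energy was derived against a sequence-predicted unfolded-state K50 and a shared folded-state K50, per protease or combined.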
row,Sequence,folding stability dG unfold
1,SAGGGNIRPVRIERLPDGSLLIVLVADSPDDAFSDESTLDALPGEEELLEARYDPSTGRVLLVRRFRPSAGG [r13_413_TrMRF],1.71 ± 0.064 kcal/mol
2,SAPEVFRFTIPRYRDDYEFDGDGYPVLKERKPVAPLEVEAVVFEDGTVRVRVGDEVREFPLGVSPEELFSAG [r14_909_TrMRF],0.355 ± 0.18 kcal/mol
3,SAGGSAGGSKKKLTLTLKVEYVDEETGEKRTVTLTITAESEEEAKAALEELAKKLPPGARIEVSAGGSAGGS [r20_211_TrROS_Hall],4.44 ± 0.11 kcal/mol
4,SAMMTPEERAFVERLRALFAERGGRIEIRFFEEPDRIEILVEEDDPELIREIREELARIPFPISRIVEESAG [r14_284_TrMRF],3.695 ± 0.012 kcal/mol
5,SAMTVERLPDGSLRITIPDPNSDTTYTIEIRRLPDGSYEVTITTTKPDGSTTTTTRPMSEEEAIAEVLASAG [r14_179_JUSTAS],3.54 ± 0.068 kcal/mol
6,SAGGSAGGSAGMIVAKVVEYDPETGEITIEVDGKKITLPLKNMKIKEVNGYLVIEFKEDDSAGGSAGGSAGG [r17_403_TrROS_Hall],3.43 ± 0.082 kcal/mol
7,SAELEELLKKAEELAKKNNVEVEVEVKLELEPVKVTEYKLNKDGKPVEKKEEEELELRLEIKVKIRPKKSAG [r14_728_TrROS_Hall],3.22 ± 0.2 kcal/mol
8,ATVTVEKLPDGYRVTVTIGATYIDPETGKPVELSAPVTAFVPPEVPDPEVAAKRAAAEALAEFLAALPEGGS [r1_414_TrMRF],1.74 ± 0.023 kcal/mol
9,SAGGSAGGSAGGLPPGAKVKVEIEISYDDPFSGPTNEYNSFPVELNFEPPEPIPTDPRLNSAGGSAGGSAGG [r7_522_TrMRF],-1.38 ± 0.55 kcal/mol
10,SAGGSAGGSDTIVVTLPDGTKITYDKENNEVYVYNLKTKKKIKFPKNMSLEEVLKAIKKLKKPSAGGSAGGS [r12_832_TrROS_Hall],2.982 ± 0.026 kcal/mol
11,SAGGSAGGSAAPDEKLKITVELVDPNNGKRIEEKEYPNMTIEEVKKEAEEKGLKIVKIEVSSAGGSAGGSAG [r3_423_JUSTAS],-0.116 ± 0.061 kcal/mol
12,SAGGSAGGSAGGMKTITLTTTSPEEAEAAKEKLLKEGPNNLVITYKPPPEPYPENGPRVVSAGGSAGGSAGG [r7_261_JUSTAS],0.743 ± 0.14 kcal/mol
13,SAGGGFDPSKLKKEKTLTLTLPGNSETFTIELYLPEDGESTVVFSYNDKNYELTITKDSITLKPVSSSAGGS [r16_711_JUSTAS],3.01 ± 0.045 kcal/mol
14,SAGGTFQVKDPNGKQKPVQLRVRITFEFKGGDKQTFEIEVEGATVDDLREFANSLMNKGFKPVSIEIWSAGG [r13_227_TrROS],2.03 ± 0.047 kcal/mol
15,SAGGSMSVEVEVLAKVKLPNGEEVTFPVRVTYNPETGEVTVEIDLPKEVFERLKELYPDGIIAPEPSAGGSA [r2_409_TrMRF],3.5 ± 0.078 kcal/mol
16,SAGGPGYNINIDVKIYPDPNDNHFVIEVKITIMPMEPDPDDGGWKQRSRTVPQEILLPPGESAEDIFSAGGS [r8_323_TrROS],1.86 ± 0.1 kcal/mol
17,SAGMTITVPGNVTVNVVITAYKFDENGNLIGPYTLVKPITVPENSTITIDLPNDEPNVVIIEIKAIPASAGG [r19_295_TrMRF],4.81 ± 0.073 kcal/mol
18,GYTITSEVEEFEDPNSDAKYTKVTIPVVDGDPEVAREAAEEIAKERFGPGATLDIKYDPETGTVTATFTVAS [r1_273_JUSTAS],0.379 ± 0.1 kcal/mol
19,SAGGSAKKPKPGRLFLRYEEPEKGEVVEAVLTVYPNNVVELEVRRPDGKPVPLEKALKLLKELGLLSAGGSA [r15_872_TrMRF],2.12 ± 0.1 kcal/mol
20,SAGGKKKKKVKIKIEIAIVIPEEDLSEEERKKLAEELAERLKRELAEKLGLSEDEIEEIEVTVYRLPPSAGG [r13_5_TrROS_Hall],2.33 ± 0.067 kcal/mol
21,SAGGPKVYLTDIVTTLPDGTVVMIGEIELPDGTPLIAITTIYKDGTVKVFIYDPNGKLIAEIEIKPKPSAGG [r13_903_TrMRF],3.09 ± 0.032 kcal/mol

# Test: folding stability dG unfold from trypsin proteolysis; higher = more stable
# How it was run: as §1
row,Sequence,folding stability dG unfold
1,SAGGSAGGMYVKIKVTMTADELKKLFPNIKKGEKVTVELVIKVEKAPPVKVEKKKEKKVEVKLKSAGGSAGG [r6_211_TrROS_Hall],0.661 ± 0.062 kcal/mol
2,STIMIMFRSPEDLEKFLNEAKEMIRNGKNVPITIMAHGPNGRYWMFTIDIKMDPDGNPKIEIEWEPVPPDSA [r9_1023_TrROS],3.23 ± 0.1 kcal/mol
3,SAGGSAGGKVTVDPAKVKAILTLKDGSKLIVLEDGVLLYNPKTEKVTLVSLSDLKKLPEDAPVPSAGGSAGG [r6_889_TrMRF],1.61 ± 0.042 kcal/mol
4,SAGGGWKPIGKEEITLPFGIKVTVDIWTWPDGMIMIMIEIEIPVPPPKPPVPPMSPEDMKDMNEDNGSAGGS [r16_6_TrROS],2.06 ± 0.14 kcal/mol
5,SAGMVVVKVTLPGPEEALRAAAAAVPVPVSIERDPEKPDVWTATITFPSPELAPVFVEAFAALGAEVVGSAG [r14_745_JUSTAS],1.96 ± 0.041 kcal/mol
6,SAGGSELENMSLEELLARAEELARELAEETGRTVTVTVEVRVRLPDGSTRTFRFTVTLTVLREEDLSAGGSA [r2_157_TrROS_Hall],3.93 ± 0.12 kcal/mol
7,SAGGPDWQTIRITFWFDSPEDAEEEVRNIARTMGLPPEGIKVEITDFEPREVNGKNYYMVEAEITIPSAGGS [r16_240_TrROS],2.95 ± 0.044 kcal/mol
8,SAGPKTLLLNIPPGEDVELLIGDKPYRIKVDPERLIGYAFDPETGEIFLIFHDPEKPIALITVFPSPPLSAG [r5_302_TrMRF],1.56 ± 0.042 kcal/mol
9,SAGGSAGGSAGGSVAYVAPDGDKLIVRVVRPDGSVEEKEFDSLEDLKTLPDDVPVAFLVSAGGSAGGSAGGS [r4_447_TrMRF],0.86 ± 0.034 kcal/mol
10,SAGGSAGGSMYIVRIEVVNEETGKTEEIELEVSEEEAEELAKELAEKLPNIKEIKVEIRPLPESAGGSAGGS [r12_757_TrROS_Hall],1.37 ± 0.15 kcal/mol
11,SAGGSAGGSAMTLRVKITLPDGRELELEIEAETEEEALAALKELIKKLFPEVKEVKIEVEPESAGGSAGGSA [r18_434_TrROS_Hall],3.91 ± 0.3 kcal/mol
12,SAGGSAGGSAGGTKTIPFPIEEIEVEHNPDNNYYHVTIRFPDNGKPITFMFPPGDTITISAGGSAGGSAGGS [r10_819_TrROS],0.812 ± 0.025 kcal/mol
13,SAGGSAGGSTALVYKNGVTVTFPVFFPDTAPAVVTLSIPSPEEAAAAVAALRAAGHAVTVEPLASAGGSAGG [r6_872_JUSTAS],0.96 ± 0.012 kcal/mol
14,SAGGSAMMTLEEAIEKAAKNIPVGEKKIIEIKLEKGTFTVEIEKIGPKEVKIKILKISKGPEEEEISAGGSA [r15_150_TrMRF],3.99 ± 0.23 kcal/mol
15,SAGGSAMKIKPGETVTIKVKNKETGEWFEAKIVKVDEEKGEIEIEVEVNGKKYTFTIPAEDIEIVESAGGSA [r15_381_TrROS_Hall],1.87 ± 0.33 kcal/mol
16,SANGKEYTFTIEIRVRDPENGQPWTIRITVPIWYDPDDGKLDIDIDVTPTPGMPKEWAERIAKEIIEAISAG [r14_152_TrROS],3.04 ± 0.11 kcal/mol
17,SAGGSEILKKLFPNVKKIEIEVEEVEVKYSEEEKKANPNKKVKVEVKVKVKIKIKIELEFDKNGKLSAGGSA [r2_404_TrROS_Hall],3.64 ± 0.19 kcal/mol
18,SAGGSAGGSMYVVKIKLKVYGENGEEYYFELELEVPEDELGEIEIELPGENLEFEAEVEVLPGSAGGSAGGS [r12_354_TrMRF],2.63 ± 0.15 kcal/mol
19,SAGGSAGGSMTIVDPETGETLEIIEVKKNEDGKESFIFRISSPKPRYFIIDKDGNIRVIEKKDSAGGSAGGS [r12_205_TrROS_Hall],1.36 ± 0.022 kcal/mol
20,SAGGSAGGSNNPDKKKKPRYVVIQIELKWYPNPNGQWSPELEITATVPAGDLEDKDDAIKDIISAGGSAGGS [r12_933_TrROS],2.13 ± 0.098 kcal/mol
21,SAGGSAGGSAGKIDPKDIEKVEFEIDEESGKGKAFVILKNGEPAEIEFSSIEEAIKALLGSAGGSAGGSAGG [r11_339_TrMRF],1.93 ± 0.099 kcal/mol

row,Sequence,folding stability dG unfold
1,SAGGGNIRPVRIERLPDGSLLIVLVADSPDDAFSDESTLDALPGEEELLEARYDPSTGRVLLVRRFRPSAGG [r13_413_TrMRF],1.33 ± 0.055 kcal/mol
2,SAPEVFRFTIPRYRDDYEFDGDGYPVLKERKPVAPLEVEAVVFEDGTVRVRVGDEVREFPLGVSPEELFSAG [r14_909_TrMRF],0.601 ± 0.22 kcal/mol
3,SAGGSAGGSKKKLTLTLKVEYVDEETGEKRTVTLTITAESEEEAKAALEELAKKLPPGARIEVSAGGSAGGS [r20_211_TrROS_Hall],3.3 ± 0.16 kcal/mol
4,SAMMTPEERAFVERLRALFAERGGRIEIRFFEEPDRIEILVEEDDPELIREIREELARIPFPISRIVEESAG [r14_284_TrMRF],2.434 ± 0.016 kcal/mol
5,SAMTVERLPDGSLRITIPDPNSDTTYTIEIRRLPDGSYEVTITTTKPDGSTTTTTRPMSEEEAIAEVLASAG [r14_179_JUSTAS],3.75 ± 0.061 kcal/mol
6,SAGGSAGGSAGMIVAKVVEYDPETGEITIEVDGKKITLPLKNMKIKEVNGYLVIEFKEDDSAGGSAGGSAGG [r17_403_TrROS_Hall],2.89 ± 0.11 kcal/mol
7,SAELEELLKKAEELAKKNNVEVEVEVKLELEPVKVTEYKLNKDGKPVEKKEEEELELRLEIKVKIRPKKSAG [r14_728_TrROS_Hall],1.26 ± 0.2 kcal/mol
8,ATVTVEKLPDGYRVTVTIGATYIDPETGKPVELSAPVTAFVPPEVPDPEVAAKRAAAEALAEFLAALPEGGS [r1_414_TrMRF],2 ± 0.057 kcal/mol
9,SAGGSAGGSAGGLPPGAKVKVEIEISYDDPFSGPTNEYNSFPVELNFEPPEPIPTDPRLNSAGGSAGGSAGG [r7_522_TrMRF],-0.683 ± 0.16 kcal/mol
10,SAGGSAGGSDTIVVTLPDGTKITYDKENNEVYVYNLKTKKKIKFPKNMSLEEVLKAIKKLKKPSAGGSAGGS [r12_832_TrROS_Hall],2 ± 0.07 kcal/mol
11,SAGGSAGGSAAPDEKLKITVELVDPNNGKRIEEKEYPNMTIEEVKKEAEEKGLKIVKIEVSSAGGSAGGSAG [r3_423_JUSTAS],-0.382 ± 0.083 kcal/mol
12,SAGGSAGGSAGGMKTITLTTTSPEEAEAAKEKLLKEGPNNLVITYKPPPEPYPENGPRVVSAGGSAGGSAGG [r7_261_JUSTAS],-0.294 ± 0.25 kcal/mol
13,SAGGGFDPSKLKKEKTLTLTLPGNSETFTIELYLPEDGESTVVFSYNDKNYELTITKDSITLKPVSSSAGGS [r16_711_JUSTAS],2.38 ± 0.13 kcal/mol
14,SAGGTFQVKDPNGKQKPVQLRVRITFEFKGGDKQTFEIEVEGATVDDLREFANSLMNKGFKPVSIEIWSAGG [r13_227_TrROS],1.595 ± 0.0094 kcal/mol
15,SAGGSMSVEVEVLAKVKLPNGEEVTFPVRVTYNPETGEVTVEIDLPKEVFERLKELYPDGIIAPEPSAGGSA [r2_409_TrMRF],2.79 ± 0.11 kcal/mol
16,SAGGPGYNINIDVKIYPDPNDNHFVIEVKITIMPMEPDPDDGGWKQRSRTVPQEILLPPGESAEDIFSAGGS [r8_323_TrROS],3.19 ± 0.17 kcal/mol
17,SAGMTITVPGNVTVNVVITAYKFDENGNLIGPYTLVKPITVPENSTITIDLPNDEPNVVIIEIKAIPASAGG [r19_295_TrMRF],3.16 ± 0.15 kcal/mol
18,GYTITSEVEEFEDPNSDAKYTKVTIPVVDGDPEVAREAAEEIAKERFGPGATLDIKYDPETGTVTATFTVAS [r1_273_JUSTAS],0.511 ± 0.026 kcal/mol
19,SAGGSAKKPKPGRLFLRYEEPEKGEVVEAVLTVYPNNVVELEVRRPDGKPVPLEKALKLLKELGLLSAGGSA [r15_872_TrMRF],1.54 ± 0.046 kcal/mol
20,SAGGKKKKKVKIKIEIAIVIPEEDLSEEERKKLAEELAERLKRELAEKLGLSEDEIEEIEVTVYRLPPSAGG [r13_5_TrROS_Hall],1.67 ± 0.092 kcal/mol
21,SAGGPKVYLTDIVTTLPDGTVVMIGEIELPDGTPLIAITTIYKDGTVKVFIYDPNGKLIAEIEIKPKPSAGG [r13_903_TrMRF],2.15 ± 0.085 kcal/mol
